Key:
AncSZ = experiment: phosphorylation enrichment, bacterial display (enrichment ratio); higher = better substrate or ligand; peptides without Tyr show the background
EPHB1 = EPHB1 (UniProt P54762); experiment: as above
EPHB2 = EPHB2 (UniProt P29323); experiment: as above
FGFR1 = FGFR1 (UniProt P11362); experiment: as above
FGFR3 = FGFR3 (UniProt P22607); experiment: as above
Fer (mouse) = experiment: as above
Fes = Fes (UniProt P07332); experiment: as above
Fyn = Fyn (UniProt P06241); experiment: as above
Hck = Hck (UniProt P08631); experiment: as above
Jak2 = Jak2 (UniProt O60674); experiment: as above
Sequence of Jak2 (O60674 whole entry, looked up): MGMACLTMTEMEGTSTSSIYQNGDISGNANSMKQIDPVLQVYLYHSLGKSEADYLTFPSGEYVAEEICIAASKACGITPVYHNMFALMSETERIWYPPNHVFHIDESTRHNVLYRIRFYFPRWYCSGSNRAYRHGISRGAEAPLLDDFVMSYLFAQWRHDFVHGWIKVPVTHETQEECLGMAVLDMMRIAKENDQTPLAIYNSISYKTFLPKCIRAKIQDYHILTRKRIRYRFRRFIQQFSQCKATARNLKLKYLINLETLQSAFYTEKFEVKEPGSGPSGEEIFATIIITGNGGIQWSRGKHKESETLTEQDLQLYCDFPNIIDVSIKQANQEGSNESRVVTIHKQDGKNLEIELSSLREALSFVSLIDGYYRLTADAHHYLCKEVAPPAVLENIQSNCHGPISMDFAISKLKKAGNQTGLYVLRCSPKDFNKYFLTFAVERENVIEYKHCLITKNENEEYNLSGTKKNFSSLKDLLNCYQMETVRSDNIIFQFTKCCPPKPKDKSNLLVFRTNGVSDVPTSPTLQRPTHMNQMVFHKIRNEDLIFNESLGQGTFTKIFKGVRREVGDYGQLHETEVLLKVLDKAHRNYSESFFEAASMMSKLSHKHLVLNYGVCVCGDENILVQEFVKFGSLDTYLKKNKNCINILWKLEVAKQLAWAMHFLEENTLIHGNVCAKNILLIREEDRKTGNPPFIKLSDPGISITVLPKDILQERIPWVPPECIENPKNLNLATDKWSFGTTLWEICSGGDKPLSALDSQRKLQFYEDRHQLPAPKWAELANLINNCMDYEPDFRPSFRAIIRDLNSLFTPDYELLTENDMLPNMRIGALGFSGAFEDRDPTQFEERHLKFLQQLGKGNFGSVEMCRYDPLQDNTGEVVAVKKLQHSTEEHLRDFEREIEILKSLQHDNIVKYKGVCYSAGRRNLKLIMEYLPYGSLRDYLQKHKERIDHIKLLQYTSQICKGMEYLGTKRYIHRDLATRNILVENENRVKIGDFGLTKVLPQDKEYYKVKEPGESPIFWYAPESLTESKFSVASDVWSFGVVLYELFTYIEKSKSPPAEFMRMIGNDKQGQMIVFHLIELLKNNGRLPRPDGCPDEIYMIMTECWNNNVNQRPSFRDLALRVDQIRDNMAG

MERTK = MERTK (UniProt Q12866); experiment: as above
Sequence of MERTK (Q12866 whole entry, looked up): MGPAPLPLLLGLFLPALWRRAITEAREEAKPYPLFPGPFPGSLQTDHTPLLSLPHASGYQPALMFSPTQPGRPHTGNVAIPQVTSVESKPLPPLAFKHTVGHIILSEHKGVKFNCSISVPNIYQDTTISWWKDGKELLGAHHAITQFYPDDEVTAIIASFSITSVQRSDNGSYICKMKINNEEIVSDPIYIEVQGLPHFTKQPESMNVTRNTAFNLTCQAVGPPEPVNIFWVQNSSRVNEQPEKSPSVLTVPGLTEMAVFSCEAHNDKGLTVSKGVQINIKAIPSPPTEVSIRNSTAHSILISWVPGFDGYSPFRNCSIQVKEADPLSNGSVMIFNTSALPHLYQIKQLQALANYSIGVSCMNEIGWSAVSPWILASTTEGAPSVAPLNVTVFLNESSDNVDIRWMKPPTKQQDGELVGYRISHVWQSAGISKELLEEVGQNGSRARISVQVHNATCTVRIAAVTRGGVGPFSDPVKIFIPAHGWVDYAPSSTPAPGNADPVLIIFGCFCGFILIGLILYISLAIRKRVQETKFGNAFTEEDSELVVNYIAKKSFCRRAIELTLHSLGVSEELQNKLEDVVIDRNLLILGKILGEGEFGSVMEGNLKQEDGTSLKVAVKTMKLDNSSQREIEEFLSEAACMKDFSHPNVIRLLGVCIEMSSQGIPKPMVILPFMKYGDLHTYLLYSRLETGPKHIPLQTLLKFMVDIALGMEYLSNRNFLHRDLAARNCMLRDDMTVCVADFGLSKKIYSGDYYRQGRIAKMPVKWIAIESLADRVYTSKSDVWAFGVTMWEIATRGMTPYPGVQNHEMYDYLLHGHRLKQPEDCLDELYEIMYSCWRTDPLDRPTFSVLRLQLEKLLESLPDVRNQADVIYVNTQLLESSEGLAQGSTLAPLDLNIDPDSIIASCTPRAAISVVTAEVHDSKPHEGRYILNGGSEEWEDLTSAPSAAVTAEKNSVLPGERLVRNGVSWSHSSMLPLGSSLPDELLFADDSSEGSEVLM

c-Abl (mouse) = experiment: as above
c-Src = experiment: as above
Grb2 SH2 = Grb2 SH2 (UniProt P62993); experiment: SH2 binding enrichment of the phosphorylated peptide, bacterial display (enrichment ratio); higher = better substrate or ligand; peptides without Tyr show the background
Sequence of Grb2 SH2 (P62993 whole entry, looked up): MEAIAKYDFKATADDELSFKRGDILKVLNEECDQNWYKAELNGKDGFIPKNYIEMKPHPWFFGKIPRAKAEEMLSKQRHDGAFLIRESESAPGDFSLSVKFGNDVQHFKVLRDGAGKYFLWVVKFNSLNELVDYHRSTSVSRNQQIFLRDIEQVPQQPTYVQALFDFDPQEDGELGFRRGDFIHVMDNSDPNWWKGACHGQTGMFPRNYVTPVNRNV

SHP2-C SH2 = experiment: as above
c-Src SH2 = experiment: as above
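Wherever SH2 binding enrichment of the phosphorylated peptide, bacterial display is given: peptide library displayed on the E. coli surface as eCPX fusions, selected cells deep-sequenced, score is each peptide's frequency after selection divided by its frequency in the input.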
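Wherever phosphorylation enrichment, bacterial display is given: 11-residue human phosphosite peptides and single-mutation variants displayed on the E. coli surface, counted by deep sequencing, each peptide's frequency after selection divided by its frequency in the unselected input library; frequency after pTyr selection over input frequency; kinase dosed for 20-30% of maximal phosphorylation in three min.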

Sequence of FGFR3 (P22607 whole entry, looked up): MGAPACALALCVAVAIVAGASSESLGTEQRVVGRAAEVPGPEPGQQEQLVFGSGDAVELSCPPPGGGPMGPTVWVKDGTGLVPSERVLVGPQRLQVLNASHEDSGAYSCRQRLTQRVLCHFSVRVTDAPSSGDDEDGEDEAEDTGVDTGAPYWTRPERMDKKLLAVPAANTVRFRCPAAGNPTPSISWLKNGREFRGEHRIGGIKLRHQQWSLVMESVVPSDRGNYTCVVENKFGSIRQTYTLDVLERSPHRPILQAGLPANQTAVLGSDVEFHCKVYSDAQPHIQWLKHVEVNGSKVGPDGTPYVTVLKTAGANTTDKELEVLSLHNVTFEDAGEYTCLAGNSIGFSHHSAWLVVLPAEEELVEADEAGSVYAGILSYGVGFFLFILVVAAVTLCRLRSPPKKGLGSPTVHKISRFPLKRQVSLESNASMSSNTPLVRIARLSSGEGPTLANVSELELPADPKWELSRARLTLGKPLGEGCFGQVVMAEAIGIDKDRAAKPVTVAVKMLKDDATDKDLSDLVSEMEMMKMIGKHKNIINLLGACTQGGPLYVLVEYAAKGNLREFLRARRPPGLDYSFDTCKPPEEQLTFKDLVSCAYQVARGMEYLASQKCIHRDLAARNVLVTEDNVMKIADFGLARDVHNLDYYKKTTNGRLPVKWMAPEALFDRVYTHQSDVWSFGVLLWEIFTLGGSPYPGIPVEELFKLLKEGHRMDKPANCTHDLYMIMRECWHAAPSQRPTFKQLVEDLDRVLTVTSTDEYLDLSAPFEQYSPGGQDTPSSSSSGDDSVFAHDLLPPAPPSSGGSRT
Sequence of EPHB2 (P29323 whole entry, looked up): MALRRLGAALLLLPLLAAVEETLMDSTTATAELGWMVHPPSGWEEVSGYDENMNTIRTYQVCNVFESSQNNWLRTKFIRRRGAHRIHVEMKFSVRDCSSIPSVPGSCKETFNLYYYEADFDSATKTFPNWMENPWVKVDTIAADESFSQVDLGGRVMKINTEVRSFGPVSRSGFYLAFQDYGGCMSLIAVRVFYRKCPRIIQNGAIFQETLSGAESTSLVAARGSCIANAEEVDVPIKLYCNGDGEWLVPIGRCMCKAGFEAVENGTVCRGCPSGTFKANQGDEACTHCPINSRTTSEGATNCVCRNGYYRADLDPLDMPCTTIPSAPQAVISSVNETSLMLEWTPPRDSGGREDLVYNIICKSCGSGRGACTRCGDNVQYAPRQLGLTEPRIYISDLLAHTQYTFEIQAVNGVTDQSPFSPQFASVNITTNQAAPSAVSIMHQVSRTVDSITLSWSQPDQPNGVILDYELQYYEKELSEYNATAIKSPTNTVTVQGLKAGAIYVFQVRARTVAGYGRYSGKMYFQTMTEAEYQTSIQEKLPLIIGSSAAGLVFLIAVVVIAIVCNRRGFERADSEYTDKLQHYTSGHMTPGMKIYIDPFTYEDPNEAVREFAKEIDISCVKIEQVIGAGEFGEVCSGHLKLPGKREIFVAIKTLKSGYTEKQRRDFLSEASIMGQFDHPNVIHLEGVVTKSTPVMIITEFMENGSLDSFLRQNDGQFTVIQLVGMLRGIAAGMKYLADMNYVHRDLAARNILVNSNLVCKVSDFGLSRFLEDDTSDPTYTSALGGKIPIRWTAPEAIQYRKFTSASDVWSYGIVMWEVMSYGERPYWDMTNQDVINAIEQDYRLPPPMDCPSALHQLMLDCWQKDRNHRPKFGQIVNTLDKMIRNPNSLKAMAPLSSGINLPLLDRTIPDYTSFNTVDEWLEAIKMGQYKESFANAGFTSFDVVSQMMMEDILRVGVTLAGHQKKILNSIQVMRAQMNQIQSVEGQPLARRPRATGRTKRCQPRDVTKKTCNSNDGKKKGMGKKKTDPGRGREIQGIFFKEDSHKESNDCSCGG
Sequence of Fes (P07332 whole entry, looked up): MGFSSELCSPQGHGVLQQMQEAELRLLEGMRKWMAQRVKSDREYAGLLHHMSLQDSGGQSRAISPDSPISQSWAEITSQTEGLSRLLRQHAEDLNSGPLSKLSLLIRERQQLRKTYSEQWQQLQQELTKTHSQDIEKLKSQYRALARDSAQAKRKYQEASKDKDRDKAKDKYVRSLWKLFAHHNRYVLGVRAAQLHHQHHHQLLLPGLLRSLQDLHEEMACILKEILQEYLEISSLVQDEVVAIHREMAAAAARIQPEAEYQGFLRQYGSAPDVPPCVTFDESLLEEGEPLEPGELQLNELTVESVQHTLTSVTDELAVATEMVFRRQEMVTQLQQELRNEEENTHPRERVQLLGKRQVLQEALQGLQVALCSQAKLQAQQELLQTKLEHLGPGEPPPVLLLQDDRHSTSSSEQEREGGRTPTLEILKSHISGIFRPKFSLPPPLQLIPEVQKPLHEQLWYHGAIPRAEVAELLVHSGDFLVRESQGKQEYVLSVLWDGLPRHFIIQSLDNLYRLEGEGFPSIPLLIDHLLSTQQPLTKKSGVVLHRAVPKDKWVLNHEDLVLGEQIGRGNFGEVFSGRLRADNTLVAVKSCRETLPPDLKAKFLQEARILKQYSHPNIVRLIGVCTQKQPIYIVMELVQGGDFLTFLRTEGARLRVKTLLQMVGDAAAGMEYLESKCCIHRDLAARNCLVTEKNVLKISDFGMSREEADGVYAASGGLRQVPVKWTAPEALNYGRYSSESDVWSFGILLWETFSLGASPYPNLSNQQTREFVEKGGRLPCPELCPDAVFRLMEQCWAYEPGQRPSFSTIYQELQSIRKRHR

| Sequence | phosphorylation enrichment (AncSZ) | phosphorylation enrichment (EPHB1) | phosphorylation enrichment (EPHB2) | phosphorylation enrichment (FGFR1) | phosphorylation enrichment (FGFR3) | phosphorylation enrichment (Fer (mouse)) | phosphorylation enrichment (Fes) | phosphorylation enrichment (Fyn) | phosphorylation enrichment (Hck) | phosphorylation enrichment (Jak2) | phosphorylation enrichment (MERTK) | phosphorylation enrichment (c-Abl (mouse)) | phosphorylation enrichment (c-Src) | SH2 binding enrichment (Grb2 SH2) | SH2 binding enrichment (SHP2-C SH2) | SH2 binding enrichment (c-Src SH2) |
| --- | --- | --- | --- | --- | --- | --- | --- | --- | --- | --- | --- | --- | --- | --- | --- | --- |
| IYKAAYFGVYD [SLC25A4_Y191_R188K] | 1.17 | 1.4 | 1.32 | 0.628 | 0.745 | 0.893 | 1.05 | 6.16 | 5.77 | 0.993 | 1.4 | 0.865 | 5.18 | 0.923 | 1.11 | 2.31 |
| KAEQLYIGVTV [EFHC2_Y509_E507Q] | 1.84 | 1.27 | 0.758 | 3.47 | 2.88 | 6.51 | 1.25 | 2.33 | 3.03 | 0.964 | 2.99 | 0.876 | 2.33 | 0.708 | 0.733 | 0.454 |
| KAESWYQTKFE [KRT75_Y342_E337K_YF] | 0.873 | 0.567 | 0.482 | 0.468 | 0.538 | 0.594 | 1.07 | 0.518 | 0.543 | 0.871 | 0.6 | 0.839 | 0.662 | 0.915 | 0.72 | 0.991 |
| KAIDMYLMGCF [GABRB2_Y308] | 1.27 | 0.566 | 0.551 | 0.504 | 1.04 | 0.486 | 1.21 | 0.515 | 0.535 | 1.04 | 0.425 | 1.06 | 0.75 | 0.823 | 0.648 | 0.44 |
| KAIMIYVSSFY [ACTN4_Y260_T259I] | 0.963 | 0.47 | 0.52 | 0.464 | 0.701 | 0.422 | 1.08 | 0.368 | 0.416 | 1.03 | 0.347 | 0.972 | 0.465 | 0.816 | 0.845 | 0.476 |
| KASRKYFAMKI [AKT3_Y173_G171R_YF] | 0.555 | 0.286 | 0.391 | 0.365 | 0.363 | 0.389 | 0.52 | 0.359 | 0.388 | 0.569 | 0.811 | 0.624 | 0.456 | 0.796 | 0.666 | 0.472 |
| KDKLPYLFDDP [GPX2_Y125_P126L_YF] | 1.23 | 0.632 | 0.515 | 0.472 | 0.544 | 0.423 | 0.969 | 0.479 | 0.468 | 1.01 | 0.426 | 0.557 | 0.557 | 0.731 | 0.773 | 0.347 |
| KEGSAYGSQSV [NFKB2_Y868_D865G] | 0.58 | 0.461 | 0.384 | 0.312 | 0.498 | 0.423 | 0.75 | 0.395 | 0.426 | 0.673 | 0.436 | 0.632 | 0.468 | 0.648 | 0.379 | 0.447 |
| KEKLCYVAPDF [ACTA1_Y220_L223P] | 1.4 | 0.558 | 0.637 | 0.635 | 0.603 | 0.419 | 0.836 | 0.424 | 0.489 | 1.18 | 0.656 | 5.43 | 0.581 | 0.971 | 0.731 | 0.724 |
| KELAKYFKLHH [AK7_Y390_N389K_YF] | 0.596 | 0.394 | 0.459 | 0.456 | 0.543 | 0.466 | 0.626 | 0.505 | 0.484 | 0.487 | 0.51 | 0.439 | 0.493 | 0.759 | 0.635 | 0.497 |
| KELSNYKHLTL [SLIT2_Y776] | 0.571 | 0.494 | 0.409 | 0.501 | 0.43 | 0.423 | 0.528 | 0.417 | 0.384 | 0.543 | 0.443 | 0.522 | 0.368 | 0.721 | 0.634 | 0.503 |
| KGIQLYDTPFE [SHB_Y297_YF] | 1.13 | 8.6 | 12.9 | 0.511 | 0.584 | 2.8 | 0.911 | 0.712 | 1.73 | 0.843 | 4.56 | 0.965 | 0.729 | 1.3 | 1.19 | 2.76 |
| KGSLPYSLILD [PKD1L2_Y406_N407S] | 1.08 | 0.822 | 0.675 | 2.32 | 2.16 | 1.06 | 1.23 | 0.734 | 0.671 | 1.19 | 1.93 | 0.86 | 1.63 | 0.736 | 4.67 | 10.5 |
| KHCEDYVFSFN [DSC1_Y846_C848F_YF] | 1.75 | 0.776 | 0.739 | 1.82 | 1.84 | 0.562 | 1.21 | 0.472 | 0.499 | 1.04 | 0.471 | 0.791 | 1.75 | 0.941 | 0.817 | 0.55 |
| KHMADYPDCKY [SOX11_Y113_Y116C] | 0.65 | 0.483 | 0.783 | 0.635 | 1.31 | 0.504 | 1.01 | 0.251 | 0.55 | 1.07 | 0.375 | 1.36 | 0.368 | 0.863 | 1.59 | 1.92 |
| KIKLNYTLPQD [NRAP_Y523_N519I] | 0.965 | 0.49 | 0.447 | 0.48 | 0.623 | 0.513 | 0.88 | 0.454 | 0.462 | 0.721 | 0.53 | 0.531 | 0.454 | 0.965 | 0.751 | 0.774 |
| KKILCYIQGGS [HYDIN_Y4610_N4606K] | 1.31 | 0.611 | 0.609 | 0.439 | 0.758 | 0.58 | 1.46 | 0.499 | 0.521 | 1.17 | 0.549 | 1.07 | 0.411 | 0.802 | 0.495 | 0.459 |

| Sequence | phosphorylation enrichment (AncSZ) | phosphorylation enrichment (EPHB1) | phosphorylation enrichment (EPHB2) | phosphorylation enrichment (FGFR1) | phosphorylation enrichment (FGFR3) | phosphorylation enrichment (Fer (mouse)) | phosphorylation enrichment (Fes) | phosphorylation enrichment (Fyn) | phosphorylation enrichment (Hck) | phosphorylation enrichment (Jak2) | phosphorylation enrichment (MERTK) | phosphorylation enrichment (c-Abl (mouse)) | phosphorylation enrichment (c-Src) | SH2 binding enrichment (Grb2 SH2) | SH2 binding enrichment (SHP2-C SH2) | SH2 binding enrichment (c-Src SH2) |
| --- | --- | --- | --- | --- | --- | --- | --- | --- | --- | --- | --- | --- | --- | --- | --- | --- |
| KLKEKYEKDIA [HMGB1_Y155] | 0.704 | 0.418 | 0.495 | 0.536 | 0.452 | 0.55 | 0.82 | 0.537 | 0.473 | 0.784 | 0.663 | 0.647 | 0.507 | 1.23 | 0.769 | 0.656 |
| KLMTEYKRRKQ [ARFGEF3_Y2029_K2031R] | 0.661 | 0.477 | 0.496 | 0.677 | 0.646 | 0.573 | 0.572 | 0.544 | 0.521 | 0.458 | 0.536 | 0.503 | 0.526 | 0.642 | 0.636 | 0.342 |
| KLYRVYCDMNT [FGB_Y269_P265L] | 0.978 | 0.769 | 0.702 | 0.452 | 0.693 | 0.52 | 1.07 | 0.608 | 0.623 | 0.838 | 0.466 | 0.696 | 0.549 | 0.868 | 0.715 | 1.22 |
| KMTGRYEMYAR [UPB1_Y362] | 0.828 | 0.58 | 0.627 | 0.523 | 0.487 | 0.438 | 0.789 | 0.476 | 0.549 | 0.674 | 0.428 | 0.54 | 0.416 | 1.13 | 0.909 | 1.12 |
| KNNDGYIDFAE [MCFD2_Y135_YF] | 0.921 | 0.492 | 0.483 | 0.556 | 0.725 | 0.559 | 1.06 | 0.406 | 0.513 | 0.903 | 0.377 | 0.663 | 0.395 | 0.707 | 0.999 | 14.3 |
| KPFRVYCDMNT [FGB_Y269_YF] | 1.22 | 0.933 | 0.72 | 0.597 | 0.773 | 0.593 | 1.3 | 0.493 | 0.513 | 1.31 | 0.409 | 0.886 | 0.414 | 0.783 | 0.535 | 0.771 |
| KQLGEYKFQNA [ALB_Y425_E420K] | 0.507 | 0.348 | 0.386 | 0.468 | 0.417 | 0.306 | 0.565 | 0.395 | 0.375 | 0.525 | 0.399 | 0.4 | 0.358 | 0.897 | 1.04 | 0.565 |
| KRAAIYNPVIF [RHO_Y301_S297R_YF] | 0.725 | 0.432 | 0.55 | 0.492 | 0.541 | 10.4 | 0.841 | 1.91 | 4.07 | 0.738 | 2.69 | 0.741 | 2.22 | 1.01 | 1.19 | 0.854 |
| KRYRIYHLATS [BRCA2_Y3009] | 0.564 | 0.456 | 0.461 | 0.487 | 0.509 | 0.313 | 0.491 | 0.445 | 0.432 | 0.336 | 0.322 | 0.402 | 0.508 | 0.791 | 0.493 | 1.34 |
| KSIEEYLKLVG [RASAL2_Y381] | 0.772 | 0.468 | 0.581 | 0.528 | 0.48 | 0.409 | 0.962 | 0.404 | 0.51 | 0.775 | 0.372 | 0.521 | 0.438 | 0.673 | 1.03 | 0.441 |
| KSPDSYQKILF [ATM_Y1415_L1420F] | 0.567 | 0.468 | 0.464 | 0.509 | 0.427 | 0.338 | 0.517 | 0.484 | 0.406 | 0.6 | 0.585 | 0.511 | 0.632 | 1.26 | 1.75 | 1.96 |
| KTNVSYCGALD [CACNB4_Y103] | 0.778 | 0.564 | 0.508 | 0.494 | 0.643 | 0.46 | 0.834 | 0.381 | 0.503 | 0.754 | 0.389 | 0.745 | 0.469 | 0.9 | 0.726 | 0.551 |
| KTVQDYLKKFY [MMP8_Y36_E38K] | 0.571 | 0.396 | 0.398 | 0.428 | 0.382 | 0.325 | 0.687 | 0.366 | 0.438 | 0.517 | 0.454 | 1.42 | 0.421 | 1 | 0.606 | 0.438 |
| KVGPGYLGSRG [RET_Y826_G830R] | 0.402 | 0.302 | 0.345 | 0.318 | 0.339 | 0.328 | 0.55 | 0.329 | 0.327 | 0.439 | 0.457 | 0.444 | 0.366 | 1 | 0.769 | 0.588 |
| KVMANYMFKAG [MAML2_Y513_YF] | 0.638 | 0.448 | 0.744 | 0.412 | 0.418 | 0.394 | 0.675 | 0.344 | 0.342 | 0.519 | 0.432 | 0.556 | 0.414 | 0.934 | 0.697 | 0.651 |
| KVPCHYDDPGK [FOXG1_Y246_R244C] | 0.827 | 0.469 | 0.527 | 0.412 | 0.598 | 0.86 | 0.943 | 0.437 | 0.793 | 0.717 | 0.412 | 0.707 | 0.443 | 0.906 | 0.838 | 2.01 |
